Experimental findings from doi:10.1101/2023.04.06.535920 (bioRxiv, 2023) are described below.

The experiment addresses T1, Fc-tagged recombinant mouse FGL1 full length (mouse, UniProt Q71KU9 23-314).
T1 sequence (looked up): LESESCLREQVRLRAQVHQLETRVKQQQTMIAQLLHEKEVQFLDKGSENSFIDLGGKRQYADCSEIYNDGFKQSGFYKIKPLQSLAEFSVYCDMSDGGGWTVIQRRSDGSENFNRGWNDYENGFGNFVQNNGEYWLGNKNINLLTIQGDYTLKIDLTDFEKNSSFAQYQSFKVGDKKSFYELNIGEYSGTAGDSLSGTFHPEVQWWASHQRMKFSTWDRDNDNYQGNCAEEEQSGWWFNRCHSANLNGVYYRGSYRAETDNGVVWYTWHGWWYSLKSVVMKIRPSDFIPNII
The experiment in a line: pull-down.

B1: hBMP6 (ligand, human, UniProt P22004 375-513, looked up)
chain: SASSRRRQQSRNRSTQSQDVARVSSASDYNSSELKTACRKHELYVSFQDLGWQDWIIAPKGYAANYCDGECSFPLNAHMNATNHAIVQTLVHLMNPEYVPKPCCAPTKLNAISVLYFDDNSNVILKKYRNMVVRACGCH
Consider B1, for which the binding result was “binds”.
